Reference: paper PMC5512577 (2016)

B1: N-terminally truncated Arl2 (aa 17-178), bound to mantGppNHp (domain or fragment)
chain: LRLLMLGLDNAGKTTILKKFNGEDVDTISPTLGFNIKTLEHRGFKLNIWDVGGQKSLRSYWRNYFESTDGLIWVVDSADRQRMQDCQRELQSLLVEERLAGATLLIFANKQDLPGALSCNAIQEALELDSIRSHHWRIQGCSAVTGEDLLPGIDWLLDDISS
B2: full-length Arl2, C-terminal histidine-tagged, bound to GppNHp or mantGppNHp (natural protein)
chain: MGLLTILKKMKQKERELRLLMLGLDNAGKTTILKKFNGEDVDTISPTLGFNIKTLEHRGFKLNIWDVGGQKSLRSYWRNYFESTDGLIWVVDSADRQRMQDCQRELQSLLVEERLAGATLLIFANKQDLPGALSCNAIQEALELDSIRSHHWRIQGCSAVTGEDLLPGIDWLLDDISSRVFTAD

Target: phosphodiesterase 6 delta subunit (PDE6δ), N-terminal histidine-tagged (UniProt O43924 1-150)
Sequence (O43924 whole entry, stated change not applied): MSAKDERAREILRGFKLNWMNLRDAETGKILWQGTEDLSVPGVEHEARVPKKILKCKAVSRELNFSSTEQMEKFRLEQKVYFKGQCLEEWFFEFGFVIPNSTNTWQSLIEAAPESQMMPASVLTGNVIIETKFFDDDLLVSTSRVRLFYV
Experiment: FP; mantGppNHp-loaded Arl; stopped-flow

Row | koff | Binder
1 | 0.98 s⁻¹ | B1
2 | 0.33 s⁻¹ | B2
